Measurements: the supplement of paper PMC5998384

Experiments:
[1] = test system: HeLa Kyoto; test: solubility in G1/S (NP-40 vs SDS abundance) (log2 ratio); higher = more soluble; details: cell cycle stage: G1/S
[2] = test system: HeLa Kyoto; test: solubility change mitosis vs G1/S (difference of NP-40 vs SDS log2 ratios) (log2 ratio difference); higher = more soluble in mitosis
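Throughout, for solubility change mitosis vs G1/S (difference of NP-40 vs SDS log2 ratios): synchronized HeLa Kyoto cells (double thymidine block for G1/S, nocodazole release for mitosis), protein amounts in NP-40 versus SDS lysates quantified by mass spectrometry, three biological replicates.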
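Throughout, for solubility in G1/S (NP-40 vs SDS abundance): HeLa Kyoto cells arrested at G1/S by double thymidine block, proteins quantified by TMT10plex mass spectrometry in mild NP-40 versus SDS extracts, three biological replicates.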

Sequence | solubility in G1/S (log2) [1] | solubility change mitosis (log2) [2]
MAATDLERFSNAEPEPRSLSLGGHVGFDSLPDQLVSKSVTQGFSFNILCVGETGIGKSTLMNTLFNTTFETEEASHHEACVRLRPQTYDLQESNVQLKLTIVDAVGFGDQINKDESYRPIVDYIDAQFENYLQEELKIRRSLFDYHDTRIHVCLYFITPTGHSLKSLDLVTMKKLDSKVNIIPIIAKADTISKSELHKFKIKIMGELVSNGVQIYQFPTDDEAVAEINAVMNAHLPFAVVGSTEEVKVGNKLVRARQYPWGVVQVENENHCDFVKLREMLIRVNMEDLREQTHSRHYELYRRCKLEEMGFQDSDGDSQPFSLQETYEAKRKEFLSELQRKEEEMRQMFVNKVKETELELKEKERELHEKFEHLKRVHQEEKRKVEEKRRELEEETNAFNRRKAAVEALQSQALHATSQQPLRKDKDKKNRSDIGAHQPGMSLSSSKVMMTKASVEPLNCSSWWPAIQCCSCLVRDATWREGFL [SEPT8] | -0.0316 | -0.0125
MACSLQKLFAVEEEFEDEDFLSAVEDAENRFTGSLPVNAGRLRPVSSRPQETVQAQSSRLLLLHPTAPSEALGLPDLDLCLPASSTPSADSRPSCIGAAPLRPVSTSSSWIGNQRRVTVTEVLRETARPQSSALHPLLTFESQQQQVGGFEGPEQDEFDKVLASMELEEPGMELECGVSSEAIPILPAQQREGSVLAKKARVVDLSGSCQKGPVPAIHKAGIMSAQDESLDPVIQCRTPRPPLRPGAVGHLPVPTALTVPTQQLHWEVCPQRSPVQALQPLQAARGTIQSSPQNRFPCQPFQSPSSWLSGKAHLPRPRTPNSSCSTPSRTSSGLFPRIPLQPQAPVSSIGSPVGTPKGPQGALQTPIVTNHLVQLVTAASRTPQQPTHPSTRAKTRRFPGPAGILPHQQSGRSLEDIMVSAPQTPTHGALAKFQTEIVASSQASVEEDFGRGPWLTMKSTLGLDERDPSCFLCTYSIVMVLRKQAALKQLPRNKVPNMAVMIKSLTRSTMDASVVFKDPTGEMQGTVHRLLLETCQNELKPGSVLLLKQIGVFSPSLRNHYLNVTPNNLVHIYSPDSGDGSFLKPSQPFPKDSGSFQHDVAAKPEEGFRTAQNLEAEASPEEELPEADDLDGLLSELPEDFFCGTSS [C17ORF53] | 0.384 | 0.0975
MADLHRQLQEYLAQGKAGGPAAAEPLLAAEKAEEPGDRPAEEWLGRAGLRWTWARSPAESAAAGLTCLPSVTRGQRLAAGGGCLLLAALCFGLAALYAPVLLLRARKFALLWSLGSALALAGSALLRGGAACGRLLRCEEAPSRPALLYMAALGATLFAALGLRSTLLTVLGAGAQVAALLAALVGLLPWGGGTALRLALGRLGRGAGLAKVLPV [SFT2D3] | -0.165 | -0.136
MAEGDAGSDQRQNEEIEAMAAIYGEEWCVIDDCAKIFCIRISDDIDDPKWTLCLQVMLPNEYPGTAPPIYQLNAPWLKGQERADLSNSLEEIYIQNIGESILYLWVEKIRDVLIQKSQMTEPGPDVKKKTEEEDVECEDDLILACQPESSLKALDFDISETRTEVEVEELPPIDHGIPITDRRSTFQAHLAPVVCPKQVKMVLSKLYENKKIASATHNIYAYRIYCEDKQTFLQDCEDDGETAAGGRLLHLMEILNVKNVMVVVSRWYGGILLGPDRFKHINNCARNILVEKNYTNSPEESSKALGKNKKVRKDKKRNEH [IMPACT] | 0.0693 | 0.00643
MAEGEGYFAMSEDELACSPYIPLGGDFGGGDFGGGDFGGGDFGGGGSFGGHCLDYCESPTAHCNVLNWEQVQRLDGILSETIPIHGRGNFPTLELQPSLIVKVVRRRLAEKRIGVRDVRLNGSAASHVLHQDSGLGYKDLDLIFCADLRGEGEFQTVKDVVLDCLLDFLPEGVNKEKITPLTLKEAYVQKMVKVCNDSDRWSLISLSNNSGKNVELKFVDSLRRQFEFSVDSFQIKLDSLLLFYECSENPMTETFHPTIIGESVYGDFQEAFDHLCNKIIATRNPEEIRGGGLLKYCNLLVRGFRPASDEIKTLQRYMCSRFFIDFSDIGEQQRKLESYLQNHFVGLEDRKYEYLMTLHGVVNESTVCLMGHERRQTLNLITMLAIRVLADQNVIPNVANVTCYYQPAPYVADANFSNYYIAQVQPVFTCQQQTYSTWLPCN [FAM46A] | -0.00125 | -0.172
MAEHAPRRCCLGWDFSTQQVKVVAVDAELNVFYEESVHFDRDLPEFGTQGGVHVHKDGLTVTSPVLMWVQALDIILEKMKASGFDFSQVLALSGAGQQHGSIYWKAGAQQALTSLSPDLRLHQQLQDCFSISDCPVWMDSSTTAQCRQLEAAVGGAQALSCLTGSRAYERFTGNQIAKIYQQNPEAYSHTERISLVSSFAASLFLGSYSPIDYSDGSGMNLLQIQDKVWSQACLGACAPHLEEKLSPPVPSCSVVGAISSYYVQRYGFPPGCKVVAFTGDNPASLAGMRLEEGDIAVSLGTSDTLFLWLQEPMPALEGHIFCNPVDSQHYMALLCFKNGSLMREKIRNESVSRSWSDFSKALQSTEMGNGGNLGFYFDVMEITPEIIGRHRFNTENHKVAAFPGDVEVRALIEGQFMAKRIHAEGLGYRVMSKTKILATGGASHNREILQVLADVFDAPVYVIDTANSACVGSAYRAFHGLAGGTDVPFSEVVKLAPNPRLAATPSPGASQVYEALLPQYAKLEQRILSQTRGPPE [XYLB] | -0.242 | 0.111
MAEKFDHLEEHLEKFVENIRQLGIIVSDFQPSSQAGLNQKLNFIVTGLQDIDKCRQQLHDITVPLEVFEYIDQGRNPQLYTKECLERALAKNEQVKGKIDTMKKFKSLLIQELSKVFPEDMAKYRSIRGEDHPPS [MED10] | -0.142 | 0.446
MAELNTHVNVKEKIYAVRSVVPNKSNNEIVLVLQQFDFNVDKAVQAFVDGSAIQVLKEWNMTGKKKNNKRKRSKSKQHQGNKDAKDKVERPEAGPLQPQPPQIQNGPMNGCEKDSSSTDSANEKPALIPREKKISILEEPSKALRGVTEGNRLLQQKLSLDGNPKPIHGTTERSDGLQWSAEQPCNPSKPKAKTSPVKSNTPAAHLEIKPDELAKKRGPNIEKSVKDLQRCTVSLTRYRVMIKEEVDSSVKKIKAAFAELHNCIIDKEVSLMAEMDKVKEEAMEILTARQKKAEELKRLTDLASQMAEMQLAELRAEIKHFVSERKYDEELGKAARFSCDIEQLKAQIMLCGEITHPKNNYSSRTPCSSLLPLLNAHAATSGKQSNFSRKSSTHNKPSEGKAANPKMVSSLPSTADPSHQTMPANKQNGSSNQRRRFNPQYHNNRLNGPAKSQGSGNEAEPLGKGNSRHEHRRQPHNGFRPKNKGGAKNQEASLGMKTPEAPAHSEKPRRRQHAADTSEARPFRGSVGRVSQCNLCPTRIEVSTDAAVLSVPAVTLVA [SPATS2L] | -1.29 | 1.14
MAEPLLRKTFSRLRGREKLPRKKSDAKERGHPAQRPEPSPPEPEPQAPEGSQAGAEGPSSPEASRSPARGAYLQSLEPSSRRWVLGGAKPAEDTSLGPGVPGTGEPAGEIWYNPIPEEDPRPPAPEPPGPQPGSAESEGLAPQGAAPASPPTKASRTKSPGPARRLSIKMKKLPELRRRLSLRGPRAGRERERAAPAGSVISRYHLDSSVGGPGPAAGPGGTRSPRAGYLSDGDSPERPAGPPSPTSFRPYEVGPAARAPPAALWGRLSLHLYGLGGLRPAPGATPRDLCCLLQVDGEARARTGPLRGGPDFLRLDHTFHLELEAARLLRALVLAWDPGVRRHRPCAQGTVLLPTVFRGCQAQQLAVRLEPQGLLYAKLTLSEQQEAPATAEPRVFGLPLPLLVERERPPGQVPLIIQKCVGQIERRGLRVVGLYRLCGSAAVKKELRDAFERDSAAVCLSEDLYPDINVITGILKDYLRELPTPLITQPLYKVVLEAMARDPPNRVPPTTEGTRGLLSCLPDVERATLTLLLDHLRLVSSFHAYNRMTPQNLAVCFGPVLLPARQAPTRPRARSSGPGLASAVDFKHHIEVLHYLLQSWPDPRLPRQSPDVAPYLRPKRQPPLHLPLADPEVVTRPRGRGGPESPPSNRYAGDWSVCGRDFLPCGRDFLSGPDYDHVTGSDSEDEDEEVGEPRVTGDFEDDFDAPFNPHLNLKDFDALILDLERELSKQINVCL [SYDE1] | 0.269 | 0.106
MAESSSESDHFRCRDRLSPWAARSTHRGTRSLPTVEVTEKVNTITSTLQDTSRNLRQVDQMLGRYREYSNGQAGAIEHLKESLEQSIDQLRSQRLLRNSGGRSISVTSLSASDLDGGTGSELHHFPPTSPLKDYGDPQGIKRMRSRTGVRFVQETDDMTQLHGFHQSLRDLSSEQIRLGDDFNRELSRRSRSDAETKRALEELTEKLNEAQKQEVVSDRVERRLQELEREMRTERELVERRQDQLGLMSLQLQEALKKQEAKADEHEGAIKNKLRQTETEKNQLEQELELSRRLLNQSEGSRETLLHQVEELRTQLTKAEGDRKGLQHQVSQISKQQSNYQDEQGEDWRFRRGVEREKQDLEKQMSDLRVQLNFSAMASELEEVKRCMERKDKEKAHLASQVENLTRELENGEKQQLQMLDRLKEIQNHFDTCEAERKHADLQISELTRHAEDATKQAERYLSELQQSEALKEEAEKRREDLKLKAQESIRQWKLKHKKLERALEKQSETVDELTGKNNQILKEKDELKTQLYAALQQIENLRKELNDVLTKRALQEEELHSKEEKLRDIKSHQADLELEVKNSLDTIHRLESELKKQSKIQSQMKVEKAHLEEEIAELKKSQAQDKAKLLEMQESIKDLSAIRADLANKLAEEERAKKAVLKDLSDLTAQAKSRDEETATIITQLKLERDVHQRELKDLTSSLQSVKTKHEQNIQELMKHFKKEKSEAENHIRTLKAESLEEKNMAKIHRGQLEKLKSQCDRLTEELTQNENENKKLKLKYQCLKDQLEEREKHISIEEEHLRRMEEARLQLKDQLLCLETEQESILGVIGKEIDAACKTFSKDSVEKLKVFSSGPDIHYDPHRWLAESKTKLQWLCEELKERENREKNLRHQLMLCRQQLRNLTENKESELQCLFQQIERQEQLLDEIHREKRDLLEETQRKDEEMGSLQDRVIALETSTQVALDHLESVPEKLSLLEDFKDFRDSCSSSERTDGRYSKYRVRRNSLQHHQDDTKYRTKSFKGDRTFLEGSHTRGLDHSSSWQDHSRFLSSPRFSYVNSFTKRTVAPDSASNKEDATMNGTSSQPKKEEYGS [CEP128] | 0.351 | -0.182
MAGARRLELGEALALGSGWRHACHALLYAPDPGMLFGRIPLRYAILMQMRFDGRLGFPGGFVDTQDRSLEDGLNRELREELGEAAAAFRVERTDYRSSHVGSGPRVVAHFYAKRLTLEELLAVEAGATRAKDHGLEVLGLVRVPLYTLRDGVGGLPTFLENSFIGSAREQLLEALQDLGLLQSGSISGLKIPAHH [NUDT16] | 0.0531 | -0.184
MAGPLRAPLLLLAILAVALAVSPAAGSSPGKPPRLVGGPMDASVEEEGVRRALDFAVGEYNKASNDMYHSRALQVVRARKQIVAGVNYFLDVELGRTTCTKTQPNLDNCPFHDQPHLKRKAFCSFQIYAVPWQGTMTLSKSTCQDA [CST3] | -0.0401 | 0.378
